This is an account of results in patent US11911450B2, “Method for managing pain” (UNIVERSITY OF MIAMI, priority 2017, dated 2024).

“Also recorded” adds a separate entry of the source.

Assay [1] has as its system RYR-dependent calcium release. Put plainly: 5HT-induced RYR-dependent cytoplasmic calcium release in NBL cells (Fura2 imaging). Conditions: 50 μM 5HT, vs empty vector. The format is cell-based, human. The procedure:
Pharmacodynamics—Bioassay of Calcium Release: Fifteen mm glass coverslips (cat #72228 Electron Microscopy Sciences, Hatfield, PA) were coated with poly-D-Lysine (Sigma) followed by Laminin and 1×10^5 cells were seeded on each coverslip. Twenty-four hrs later, cells were transfected with AAV2-ITR, AAV2-V5-Car10, or AAV2-V5-CA10 vectors as previously described. In embodiments wherein AAV2 is not employed, other expression vectors (including viral vectors) are used. Fura-2AM (cat #F1221 ThermoFisher scientific, Waltham, MA) was dissolved in DMSO (50 μg in 50 μl) and 1% pluronic acid-127 (cat #P2443 Sigma, St Louis, MO) as the stock solution. Forty eight hrs after seeding, cells were loaded with 2 μM Fura-2AM dye for 45 min at room temperature in the dark in a standard Ca+2 buffer solution containing: 125 mM NaCl, 2 mM MgCl, 4.5 mM KCl, 10 glucose, 20 mM HEPES, 2 mM CaCl2, pH 7.4.25. Following dye loading, coverslips were washed with Ca^+2 buffer solution. […] Regions of interest over the field of view were selected and the mean pixels intensity at each frame was measured. Data was plotted as ratio fluorescence intensity versus time and subsequently converted to a relative scale.
It was also determined that 5HT-induced RYR-dependent calcium release in NBL cells is inhibited by ryanodine. […]

For assay [2], the system named is ITPR1 phosphorylation (pITPR1) at Ser-1755. Put plainly: forskolin-induced ITPR1 phosphorylation (pITPR1) in transfected HEK293 cells. It counts as cell-based, human. Conditions: 1 μM forskolin; for forskolin-induced ITPR1 phosphorylation (pITPR1), western blot: overexpression vs empty vector; for pITPR1 by IHC in response to forskolin: vs empty vector (AAV-null). How it is done:
Cell culture and transfections: Human neuronal-derived (e.g., NBL), human non-neuronal derived (e.g., HEK293) cells, or dispersed rodent primary DRG cells can be used. HEK293 cells (cat #CRL-1573 ATCC Manassas, VA) were cultured in Dulbecco's modified Eagle's medium (DMEM-Glutamax cat #0566; Invitrogen) supplemented with 10% fetal bovine serum, FBS (cat #16140 ThermoFisher scientific, Waltham, MA) and 1% penicillin/streptomycin (cat #15140 ThermoFisher scientific, Waltham, MA). Cells were seeded in six-well plates at density of 1.0×10^5 cells per well. The following day, cells were transfected with plasmids via lipofectamine LTX reagent and plus (cat #15338 ThermoFisher scientific, Waltham, MA). For each transfection 2 μg of AAV2-ITR (control), AAV2-V5-Car10, or AAV2-V5-CA10 vectors was used. In various embodiments of the disclosure described herein, 2 μg of expression vectors (including positive and negative controls) in instances when AAV2 is not the viral vector employed.
Immunohistochemistry (IHC): HEK293 cells were seeded in poly-L-Lysine/laminin coated glass coverslips at a density of per coverslip, 24 hrs later cells were transfected with Car10, CA10 or empty vector respectively. Cells were cultured at 37° C. for an additional 96 hrs, then treated with forskolin 1 μM (F6886 Sigma, St. Louis, MO) for 5 min, then fixed with 4% paraformaldehyde for 15 min, permeabilized with 0.1% Triton X-100 for 10 min, and blocked with 1% bovine serum albumin (BSA, sigma) for 1 h. Cells were then incubated with anti-pITPR1 (cat #8548s cell signaling technology), anti-Car10 (cat #SAB1102286 Sigma, St Louis, MO), anti-V5 (cat #R960 Invitrogen), anti-ITPR1 (cat #8568 Cell Signaling technology) antibody overnight at 4° C. The next day, cells were incubated with the corresponding second antibody (1:200) for 1 h at room temperature in the dark. Coverslips were dried and affixed to slides using a fluorescent mounting medium containing Dapi (cat #P36931 Life Technologies). It will be understood that IHC methods also are contemplated using anti-Car8, anti-CA8, anti-CA8 fragment (CA8-204), anti-CA10, anti-Car11 and anti-CA11 antibodies.
HEK293 cells were transfected using AAV8-V5 vectors overexpressing Car10 and CA10, an empty vector and vehicle served as controls. A V5 sequence was inserted at the Car10 or CA10 C-terminal region in order to differentiate between exogenous and endogenous CA10/Car10 expression. […] Using the V5 tag, protein overexpression was detected following V5-Car10 and V5-CA10 vector transfection (FIG. 1B).
In order to examine the role of CA10 in the regulation of ITPR1 phosphorylation (pITPR1) that enhances the response of ITPR1 to the IP3 ligand, HEK293 cells were transfected with AAV8-V5-CA10 vectors. […]
In general terms: In western blotting, separated proteins are transferred to a membrane and probed.

B1: Car10: carbonic anhydrase 10, rodent ortholog, overexpressed (V5-tagged) protein (protein)
chain: MEIVWEVLFLLQANFIVCISAQQNSPKIHEGWWAYKEVVQGSFVPVPSFWGLVNSAWNLCSVGKRQSPVNIETSHMIFDPFLTPLRINTGGRKVSGTMYNTGRHVSLRLDKEHLVNISGGPMTYSHRLEEIRLHFGSEDSQGSEHLLNGQAFSGEVQLIHYNHELYTNVTEAAKSPNGLVVVSIFIKVSDSSNPFLNRMLNRDTITRITYKNDAYLLQGLNIEELYPETSSFITYDGSMTIPPCYETASWIIMNKPVYITRMQMHSLRLLSQNQPSQIFLSMSDNFRPVQPLNNRCIRTNINFSLQGKDCPNNRAQKLQYRVNEWLLK
modifications: left off: small tags and cut ends
notes: carbonic anhydrase 10, rodent ortholog, overexpressed (V5-tagged) protein
With B1, in assay [1] (listed as V5-Car10), the “5HT-induced cytoplasmic calcium release, effect of overexpression” value was “inhibited; also recorded: inhibits 50 μM 5HT-induced cytoplasmic calcium release”. In assay [2], the “forskolin-induced ITPR1 phosphorylation (pITPR1), western blot” value is “reduced forskolin-induced ITPR1 phosphorylation; also recorded: inhibited forskolin-induced pITPR1” and the “pITPR1 by IHC in response to forskolin” value is recorded as “no increase in pITPR1”.

B2: CA10: human carbonic anhydrase 10, overexpressed (V5-tagged) protein; SEQ ID NO: 9 (protein)
chain: B1 chain
modifications: V5 tag
Consider B2, for which the “5HT-induced cytoplasmic calcium release, effect of overexpression” value in assay [1] (listed as V5-CA10) is listed as “inhibited; also recorded: inhibits 50 μM 5HT-induced cytoplasmic calcium release”. In addition, in assay [2], the “forskolin-induced ITPR1 phosphorylation (pITPR1), western blot” value is “reduced forskolin-induced ITPR1 phosphorylation; also recorded: inhibited forskolin-induced pITPR1” and the “pITPR1 by IHC in response to forskolin” value is reported as “no increase in pITPR1”.
